Source: PMC13254535, “The RecBCD complex interacts directly with the DNA sliding clamp in Escherichia coli” (Nucleic Acids Research, 2026)
Read-outs that look alike come from different tables or passages of the source.

Legend:
[1] = target: T1, β-clamp (Escherichia coli, UniProt P0A988)
From the text: Protein–protein interactions between RecB and β-clamp, as well as between RecB and RecA, were examined using the bacterial adenylate cyclase-based two-hybrid (BACTH) system (Euromedex), as previously described, with optimizations noted below. This system relies on the functional reconstitution of Bordetella pertussis adenylate cyclase (CyaA) fragments T25 and T18, which are genetically fused to the proteins of interest. Upon interaction of the fusion partners, cAMP production is restored in the cyaA-deficient E. coli BTH101 strain, activating downstream reporters such as lacZ and mal operons. Co-transformants were tested using one or several of the following readouts: (i) qualitative X-gal spot assay, (ii) quantitative β-galactosidase assay, and (iii) semi-quantitative growth in M63 minimal medium with maltose.
Recipient strains (BTH101 or derivatives) were streaked from glycerol stock onto LB agar plates containing streptomycin (100 µg/ml), isopropyl β-D-1-thiogalactopyranoside (IPTG) (0.5 mM), and 5-bromo-4-chloro-3-indolyl β-D-galactopyranoside (X-gal) (40 µg/ml) and incubated at 37°C until cya⁺ (blue) revertants became visible among the cya⁻ (white) colonies. Multiple white colonies were picked and cultured overnight in LB with streptomycin (100 µg/ml) at 37°C. These cultures were diluted 1:50 and expanded before electroporation.
Transformed cells were immediately recovered in 1 ml SOC at 37°C for 1.5 h with shaking and plated on LB agar supplemented with appropriate antibiotics (Table 4). Plates were incubated at 30°C for up to 3 days.
Following selection, 3–5 colonies from each transformation plate were pooled to inoculate 1 ml LB containing IPTG (0.5 mM) and the appropriate antibiotics. Cultures were incubated overnight at 30°C with shaking. The same overnight culture was used to seed all subsequent assays. The following day, cultures were diluted 1:100 into fresh LB (containing IPTG and antibiotics) and grown at 30°C to mid-exponential phase (OD600 around 0.5–0.6, measured by Nanodrop One, Thermo Fisher Scientific Inc.) before use in assays.
The X-gal spot assay was used to visualize protein−protein interactions via blue/white colorimetric readout. Mid-log cultures were serially diluted (10-fold series), and 5 µl of each dilution (including undiluted) was spotted onto LB agar containing IPTG (0.5 mM), X-gal (40 µg/ml), and selective antibiotics. To assess interaction stability under genotoxic stress, an identical plate was exposed to UV light (15 J/m^2). Plates were incubated at 30°C for 2–3 days, and images were captured with a smartphone camera.
β-galactosidase activity was quantified using a modified Miller assay adapted for 96-well format. Cultures at OD600 around 0.5–0.6 were measured again in a plate reader (Victor Nivo, PerkinElmer, Waltham, MA, USA) to account for instrument variability. Cells were pelleted, resuspended in PM2 buffer (70 mM Na2HPO4, 30 mM NaH2PO4, 1 mM MgSO4, 0.2 mM MnSO4, and 100 mM β-mercaptoethanol), and permeabilized with 0.01% (w/v) sodium dodecyl sulfate (SDS) and 10% (v/v) toluene for 45 min at 37°C. […] Absorbance at 405 nm was recorded, and β-galactosidase activity calculated in Miller Units using the following equation: […]
This assay exploits the cAMP dependence of the mal regulon, allowing only cya^+ cells with interacting fusion proteins to grow on maltose as sole carbon source. […] Cultures were incubated in triplicate at 30°C with shaking, and OD600 was measured at 24, 48, and 72 h using a plate reader. […]

[2] = system: ΔrecA ΔrecB cells; assay: Basal DNA content without UV; assay type: cell-based, Escherichia coli; conditions: expressed from pUT18C in ΔrecA ΔrecB; unchallenged; relative to ΔrecA ΔrecB cells
Protocol: IMR13 (ΔrecA) served as a positive control for RecB-mediated DNA degradation, while IMR19 (ΔrecA ΔrecB) was used as a negative control.
Overnight cultures were diluted to an OD600 of 0.01 into LB medium supplemented with appropriate antibiotics and incubated with shaking at 37°C until they reached an OD600 of 0.2. Each culture was split into two 1 ml aliquots. One aliquot was fixed immediately in ethanol (50% final concentration) to assess DNA content prior to UV exposure. The second aliquot was pelleted, resuspended in 1× PBS, and exposed to UV light at a dose of 50 J/m^2 (CL-1000 Ultraviolet crosslinker, UVP). […]
Imaging was performed on a Leica DM6000 B fluorescence microscope equipped with a 100× oil immersion objective (Leica HCX Plan Apochromat 100×, 1.40 NA, PH3 CS), a Leica EL6000 metal-halide illumination system, and a Hamamatsu C9100-14 EM-CCD camera. For each sample, six fields of view were acquired, each including both phase-contrast and fluorescence channels. Fluorescence imaging was conducted using a narrow band-pass filter set optimized for CFP (Excitation: 426–446 nm; Emission: 460–500 nm; exposure time: 30 ms). All imaging parameters—including exposure time, illumination intensity, and gain—were kept constant across all strains, treatments, and replicates to ensure quantitative comparability and minimize experimental bias. […]

[3] = target: T1, β-clamp; conditions: N-terminally his-tagged RecB as bait, pBAD30, E. coli MG1655; anti-β-clamp western blot
Protocol: His-tagged recB was cloned into the pBAD30 plasmid (kind gift from Prof. Michael T. Laub, MIT and Howard Hughes Medical Institute, USA) by Dongxuan Gene Technology Co. and transformed into E. coli MG1655. An overnight culture was diluted 1:100 into 1 l of LB broth supplemented with ampicillin (100 µg/ml). When the culture reached an OD600 of 0.5, expression was induced with 0.4% (w/v) L-arabinose. After 2 h of induction at 37°C, cells were harvested by centrifugation (4000 x g, 10 min), washed with Phosphate buffered saline (PBS), and crosslinked with 1% formaldehyde for 20 min at room temperature. Crosslinking was quenched by the addition of glycine to a final concentration of 2.5 M. The cell pellets were washed three times with PBS, flash-frozen in liquid nitrogen, and stored at −80°C.
For lysis, cell pellets were resuspended in 10 ml of lysis buffer (50 mM Tris–HCl, pH 8.0; 500 mM NaCl; 10 mM β-mercaptoethanol; 1 mg/ml lysozyme) and subjected to sonication in 3 × 15-s pulses (Vibra cell, Sonics & Materials, Inc., Newtown, CT, USA). […]
After incubation for 30 min at 4°C with gentle rotation, beads were washed four times with wash buffer (50 mM sodium phosphate, pH 8.0; 300 mM NaCl; 0.01% (v/w) Tween-20). […] Beads were removed magnetically, and eluates were analyzed by SDS–polyacrylamide gel electrophoresis (PAGE). […]

T1 sequence (P0A988 whole entry, the tested form may be a part): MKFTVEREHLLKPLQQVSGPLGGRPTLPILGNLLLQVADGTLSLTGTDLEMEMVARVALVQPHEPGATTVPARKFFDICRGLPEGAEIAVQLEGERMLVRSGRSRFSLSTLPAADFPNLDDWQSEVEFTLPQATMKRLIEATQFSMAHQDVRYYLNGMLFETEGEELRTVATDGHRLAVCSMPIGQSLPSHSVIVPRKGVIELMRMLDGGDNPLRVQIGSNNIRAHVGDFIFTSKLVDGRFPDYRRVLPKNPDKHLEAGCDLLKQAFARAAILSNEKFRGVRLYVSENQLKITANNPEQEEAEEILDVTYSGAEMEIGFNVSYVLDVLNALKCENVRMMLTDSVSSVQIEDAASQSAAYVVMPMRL

B1: RecB: wild type RecB subunit of the E. coli RecBCD complex (T18 fusion, his-tagged or HaloTag according to test) (protein)
chain: MSDVAETLDPLRLPLQGERLIEASAGTGKTFTIAALYLRLLLGLGGSAAFPRPLTVEELLVVTFTEAATAELRGRIRSNIHELRIACLRETTDNPLYERLLEEIDDKAQAAQWLLLAERQMDEAAVFTIHGFCQRMLNLNAFESGMLFEQQLIEDESLLRYQACADFWRRHCYPLPREIAQVVFETWKGPQALLRDINRYLQGEAPVIKAPPPDDETLASRHAQIVARIDTVKQQWRDAVGELDALIESSGIDRRKFNRSNQAKWIDKISAWAEEETNSYQLPESLEKFSQRFLEDRTKAGGETPRHPLFEAIDQLLAEPLSIRDLVITRALAEIRETVAREKRRRGELGFDDMLSRLDSALRSESGEVLAAAIRTRFPVAMIDEFQDTDPQQYRIFRRIWHHQPETALLLIGDPKQAIYAFRGADIFTYMKARSEVHAHYTLDTNWRSAPGMVNSVNKLFSQTDDAFMFREIPFIPVKSAGKNQALRFVFKGETQPAMKMWLMEGESCGVGDYQSTMAQVCAAQIRDWLQAGQRGEALLMNGDDARPVRASDISVLVRSRQEAAQVRDALTLLEIPSVYLSNRDSVFETLEAQEMLWLLQAVMTPERENTLRSALATSMMGLNALDIETLNNDEHAWDVVVEEFDGYRQIWRKRGVMPMLRALMSARNIAENLLATAGGERRLTDILHISELLQEAGTQLESEHALVRWLSQHILEPDSNASSQQMRLESDKHLVQIVTIHKSKGLEYPLVWLPFITNFRVQEQAFYHDRHSFEAVLDLNAAPESVDLAEAERLAEDLRLLYVALTRSVWHCSLGVAPLVRRRGDKKGDTDVHQSALGRLLQKGEPQDAAGLRTCIEALCDDDIAWQTAQTGDNQPWQVNDVSTAELNAKTLQRLPGDNWRVTSYSGLQQRGHGIAQDLMPRLDVDAAGVASVVEEPTLTPHQFPRGASPGTFLHSLFEDLDFTQPVDPNWVREKLELGGFESQWEPVLTEWITAVLQAPLNETGVSLSQLSARNKQVEMEFYLPISEPLIASQLDTLIRQFDPLSAGCPPLEFMQVRGMLKGFIDLVFRHEGRYYLLDYKSNWLGEDSSAYTQQAMAAAMQAHRYDLQYQLYTLALHRYLRHRIADYDYEHHFGGVIYLFLRGVDKEHPQQGIYTTRPNAGLIALMDEMFAGMTLEEA
modifications: left off: T18 (Bordetella pertussis CyaA fragment), N-terminal, kept
With B1 the “interaction strength relative to RecB–RecC positive control” value [1] was “comparable to the RecB–RecC positive control interaction”, the “interaction with β-clamp, β-galactosidase activity” value [1] was “abolished” and the “interaction with β-clamp, β-galactosidase activity” value ([1]; BTH101 wild-type and ΔrecB backgrounds, 24 h, relative to empty vector negative control) was “distinct interaction”. The “interaction with β-clamp, β-galactosidase activity” value ([1]; BTH101 ΔrecA) was “initially appeared absent”, the “interaction with β-clamp, M63/maltose growth” value ([1]; BTH101 ΔrecA, M63/maltose variant, longer incubation) was “the interaction was apparent also in the ΔrecA strain” and the basal degradation [2] was about 50%. The “pull-down of β-clamp” value [3] was “β-clamp was pulled down and exhibited a strong band on the membrane”.
